# Laboratory results as given in the nanobody polyreactivity screen of Harvey et al. (2022).
# Assay: yeast display, Sf9 membrane polyspecificity reagent, FACS + sequencing; frameworks hold sequencing errors
# How it was run: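 Nanobodies from a synthetic yeast display library (Saccharomyces cerevisiae BJ5465), induced 36–48 hours with galactose, were stained 1 hour at 4 °C with 10% biotinylated, detergent-solubilized Sf9 membrane reagent, enriched on streptavidin microbeads, then FACS-sorted. Anti-HA (expression) and streptavidin (reagent binding) fluorescence set low and high (top ~1%) gates. Polyreactivity labels come from the gate of origin. Genes were colony-PCR amplified, MiSeq 2 × 250 sequenced and filtered by CDR length.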
row,Sequence,polyreactivity (PSR sort gate)
1,QVQLVESGGGLVQAGGSLRLSCAASGRIFGRYAMGWYRQAPGKEREFVATITSRGGNTYYADSVKGRFTISRDTAKNSVYLQMNSLKPEDTAVYYCNADYLWFNFYYWGQGTQVTVSS,low polyreactivity
2,QVQLVESGGGLVQAGGSLRLSCAASGSTFSYYAMGWYRQAPGKERELVAAISSRGGSTYYADSVKGRFTISRDNAKNTVYLQMNSLKPEDTAVYYCNADHQFRSSVSGDHDYWGQGTQVTVSS,high polyreactivity
3,QDQLGDSGGGLVQAGGSLRLSCAASGSTYSVYTMGWYRQAPGKERELVAGITSNAGSTYYADSVKGRFTISRDNAMNTVYLEMNRLKPEDTAVYYCNADRWVRTTYDYWGQGTQVTVSS,high polyreactivity
4,QVQLVESGGGLVQAGGSLRLSCAASGRTFHEYAMGWYRQAPGTERELVADISDGGSTNYADSVKGRFTISRDNAKNTVYLQMNSLKPEDTAVYYCNTDVPSAQYDYWGQGTQVTVSS,low polyreactivity
5,QVQLVESGGGLVQAGGSLRLSCAASGSIFVNYAMGWYRQAPGKERELVAAISGRGGSTYYADSVKGRFTISRDNAKNTVYLQMNSLKPEDTAVFYCARYGYYGHDWGQGTQVTVSS,high polyreactivity
6,QVQLVESGGGLVQAGGSLRLSCAASGRIFSRYALGWYRQAPGQERELDAAINKSGGSTYYADSVKGRFTISRDNAKNTVYFQMKSMKAEDTAVYYCTAVYYWYKGDYWGQGTQVTVSS,high polyreactivity
7,QDQLVDSGGGLVQAGGSLRLSSSASGLIFYKYAMGWYRQAPGKERELVAAISSSGGSTYYADSVKGRFTISRDTAKITVYLQMNSLKPDDTAVYYCAARTNRRGYNYWGQGTQVTVSS,high polyreactivity
8,QVQLVESGGGLVQAGGSLRLSCAAYGYTFRYNAMGWYRQAPGKERELVATITRGGSTNYADSVKGRFTISRDNAKNTVYLQMNSLKPEDTAVYYCNKEAAPRGFVPSYYGRDYWGQGTQVTVSS,low polyreactivity
9,QVQLVESGGGLVQAGGSLRLSCAASGSTFVNNAMGWYRQAPGKERELVAAITNGGSTNYADSVKGRFTISRDNAKNTVYLQMNSLKPEDTAVYYCAKYGDPYRHRSGTVEYGYWGQGTQVTVSS,low polyreactivity
10,QVQLVESGGGLVQAGGSLRLSCAASGSTFRPYAMGWYRQAPGKERELVAAITSTDVNTYYADSVKGRFTISRDNAKNTVYLQMNSLKPEDTAVYYCAAVYLGYYGVSDMEYWGQGTQVTVSS,high polyreactivity
11,QVQLVESGGGLVQAGGSLRLSCAASGIIFDYYPMGWYRQAPGKERELVAGITRSGGRTYYADSVKGRFTISRDNAKNTVYLQMNSLKPEDTAVYYCAAQRGRRRWGGYWGQGTQVTVSS,high polyreactivity
12,QVQLVESGGGLFHAGGRLRLSCAASGRIFGRYDMGWSIQAPGKERELVASISTGGGGTYYADSVKGRFTISRDNAKNTVYLQMNSLKPEDTAVYYCAKAWRGFWTKYDYWGQGTQVTVSS,low polyreactivity
13,QVQLVESGGGLVQAGGSLRLSCAASGSTLPPYVMGRYRQAPGKERELVAAISSSSGSTYYADSVKGRFTISRDNAKNTVYLQRNSLKPEDTAVYYCAAVTGWAREEEYWGQGTQVTVSS,low polyreactivity
14,QVQLVESGGGLVQAGGSLRLSCAASGFIFRWYAMGWYRQAPGKERELVAAISRSGDSTYYADSVKGRFTISRDNAKNTVYLQMNSLKPEETAVYYCAADDRYYTYGYDYWGQGTQVTVSS,low polyreactivity
15,QVQLVESGGGLVQAGGSLRLSCAASGRTLTLNAMGWYRQAPGKERELVAAISGSGGRTFYADSVKGRFTISRDNAKNTVYLQMNSLKPEDTAVYYCAADYFYLKWYEYWGQGTQVTVSS,high polyreactivity
16,QVQLVESGGGLVQAGGSLRLSCAASGFTFDWNSMGCYRQAPGQERELVATIRWSVGSTYYADSVKGRFTISRDNAKNTVYLQMNSLKPEDTAVYYCAADSQWSYPDYPGEYAYDYWGQGTQVTVSS,low polyreactivity
17,QVQLVESGGGLVQAGGSLRLSCAASGSTFWTNAMGWFRHAPGKVRELVATISKTTGRTNYADSEKGRFTISRDNAKNTVYLQMNSLKPEDTAVYYCAAEPYSWDTWVDYDYWGIGTQVTVSS,low polyreactivity
